Laboratory results published in patent CN107236025A, “与cd56分子特异性结合的多肽及其应用” (GUANGZHOU YIDAI PHARMACEUTICAL TECHNOLOGY Co Ltd, priority 2017, dated 2017).

Assays:
U2 OS细胞 = experiment: Cytotoxicity test (CCK8) on U2 OS cells; type: cell-based; details: 0.1-100 μg/ml peptide, 72 h; versus medium without peptide; Fig. 5
[1] = In vivo metabolism and distribution in mouse by fluorescence imaging; design: species or system 小鼠
[2] = female mouse, tail vein, 400 ul of 1 mg/ml, Fig. 7

Molecule	Toxicity to U2 OS cells (cell viability, CCK8) (U2 OS细胞)	Distribution of peptide fluorescence after 1 h [1, 2]	Distribution of peptide fluorescence after 3.5 h [1, 2]	Route of metabolism ([1]; female mouse, tail vein, concluded from fluorescence imaging)	Peptide residue in liver, spleen, lung and kidney (frozen sections, confocal) ([1]; mouse, after 3.5 h of imaging, Fig. 8)
SSVLTKWYLVCWSLGESISNERRKNFHLVGHWGCLRKLTFVVE [7号多肽]	没有毒性作用				
SSVYCKQTNKKKRKERKRDTGMKGDIIGTGVNDLAPLRGPIKASTMVAVAQDMAGTGADFLFL (peptide) SSVYCKQTNKKKRKERKRDTGMKGDIIGTGVNDLAPLRGPIKASTMVAVAQDMAGTGADFLFL	没有毒性作用	逐渐富集到小鼠肝、肾和肠	只留存于肝脏和肠腔	主要经过肝脏代谢	各个脏器均有少量的多肽残留
